Reference: article PMC7056315 (Science Advances, 2020)

Experiments:
[1] = target: human Kv1.3 channel (human) (UniProt P22001); assay: two-electrode voltage clamp
[2] = target: KcsA-Shaker channel (KcsA pore carried in the Shaker channel) (Drosophila | not stated); assay: two-electrode voltage clamp
[3] = target: KcsA-Shaker channel (KcsA pore carried in the Shaker channel) (Drosophila | not stated); assay: two-electrode voltage clamp; remark: listed apart in the source
[4] = target: human Kv1.3 channel (human) (UniProt P22001); assay: […]
[5] = tested on: KcsA-Shaker–Y82V; assay: TEVC equilibrium inhibition of pore mutant KcsA-Shaker-Y82V in oocytes; format: cell-based; conditions: KcsA-Shaker–Y82V vs KcsA-Shaker, 0 mV
[6] = tested on: KcsA-Shaker channels; assay: TEVC block of KcsA-Shaker channels expressed in Xenopus oocytes; format: cell-based
[7] = target: KcsA-Shaker channels; conditions: TEA block of KcsA-Shaker; cited from earlier work
[8] = target: KcsA-Shaker–Y82V (Drosophila | not stated); assay: […]
[9] = target: KcsA-Shaker channel (KcsA pore carried in the Shaker channel) (Drosophila | not stated); assay: […]

Chain of human Kv1.3 channel (human) (P22001 whole entry): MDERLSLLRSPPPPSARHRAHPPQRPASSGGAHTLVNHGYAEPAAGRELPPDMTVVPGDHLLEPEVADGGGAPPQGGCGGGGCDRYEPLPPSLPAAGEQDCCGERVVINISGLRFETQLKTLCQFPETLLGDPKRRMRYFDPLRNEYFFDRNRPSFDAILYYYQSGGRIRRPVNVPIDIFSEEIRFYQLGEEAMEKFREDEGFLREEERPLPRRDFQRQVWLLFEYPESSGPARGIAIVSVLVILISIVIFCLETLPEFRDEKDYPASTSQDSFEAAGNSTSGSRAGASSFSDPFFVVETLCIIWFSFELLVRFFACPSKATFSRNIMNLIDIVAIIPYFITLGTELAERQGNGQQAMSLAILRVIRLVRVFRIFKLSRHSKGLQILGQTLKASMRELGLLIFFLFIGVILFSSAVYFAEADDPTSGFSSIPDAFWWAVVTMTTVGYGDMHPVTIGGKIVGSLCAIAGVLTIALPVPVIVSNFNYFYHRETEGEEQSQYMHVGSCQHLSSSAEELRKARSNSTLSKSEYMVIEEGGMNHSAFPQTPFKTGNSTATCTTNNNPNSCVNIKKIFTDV

T-HmK–Lys^22Asn (peptide)
fold change of apparent Ki against T-HmK [1]: 230 fold
percent of current blocked (0.5 ng of cRNA) [1]: 2%
Ki [2]: 35 nM
koff [2]: 0.11 s⁻¹
kon [2]: 3.1e+06 M⁻¹ s⁻¹
percent of current blocked (0.5 ng of cRNA) [2]: < 38%

T-HmK (membrane-tethered HmK, 46-residue linker) (peptide)
Ki [3]: 1.1 nM
Ki [1]: 3 nM
Ki [2]: 1.09 nM
apparent first-order on rate (effective T-HmK 1 nM) [2]: 0.014 s⁻¹
apparent first-order on rate (effective T-HmK 17 nM) [2]: 0.119 s⁻¹
koff [2]: 0.0073 s⁻¹
kon [2]: 6.6e+06 M⁻¹ s⁻¹
percent of current inhibited (0.01 ng of T-HmK cRNA) [2]: 2%
percent of current inhibited (0.25 ng of T-HmK cRNA) [2]: 76%
percent of current inhibited (0.35 ng of T-HmK cRNA) [2]: 87%
percent of current inhibited (0.5 ng of T-HmK cRNA) [2]: > 94%
percent of current inhibited (1 ng of T-HmK cRNA) [2]: 98%
τon (0.25 ng of T-HmK cRNA) [2]: 33 s

T-HmK–Arg^24Gln (peptide)
fold change of apparent Ki against T-HmK [1]: 3 fold
percent of current blocked (0.5 ng of cRNA) [1]: 68%
Ki [2]: 0.91 nM
koff [2]: 0.0063 s⁻¹
kon [2]: 6.9e+06 M⁻¹ s⁻¹

ShK-K22N peptide
fold decrease of inhibition against ShK peptide [4]: 24 fold

T-HmK-Lys22Asn
koff [4]: 0.93 s⁻¹

CC[N+](CC)(CC)CC [TEA, tetraethylammonium]
decrease in equilibrium affinity by mutation of pore residue Tyr^82 to Val [5]: ~ 200 fold
block of KcsA-Shaker ([6]; 100 mM TEA): complete
τoff (dissociation / unblock) ([6]; washout of 100 mM TEA): ~ 1.3 s
Ki [7]: ~800 µM

HmK peptide
fold decrease of equilibrium affinity against KcsA-Shaker [8]: 550 fold
Ki [4]: 3.1 nM
Ki [9]: 0.94 nM
kon [9]: 1.3e+06 M⁻¹ s⁻¹
τoff [9]: 714 s
τon (5 nM HmK) [9]: 126 s
kon [2]: 1.2e+06 M⁻¹ s⁻¹
τon (30 nM HmK, after TEA wash off) [2]: 27 s

T-ShK (membrane-tethered ShK) (peptide)
Ki [1]: 0.098 nM

T-HmK–Tyr^23Ala (peptide)
Ki [2]: 28 nM
koff [2]: 0.17 s⁻¹
kon [2]: 6.1e+06 M⁻¹ s⁻¹
percent of current blocked (0.5 ng of cRNA) [2]: < 38%

Peptide HmK-Tyr^23Ala
Ki [9]: 162 nM
koff [9]: 0.15 s⁻¹
kon [9]: 930000 M⁻¹ s⁻¹

T-HmK variant Pro^8 to alanine (peptide)
fold decrease of affinity against T-HmK [2]: 10 fold

T-ShK–Lys^22Asn (peptide)
Ki [1]: 0.42 nM
percent of current blocked (0.1 ng of cRNA) [1]: 70%

T-HmK variant Asn^26 to alanine (peptide)
fold decrease of affinity against T-HmK [2]: 10 fold

Peptide HmK-Lys^22Asn
Ki [9]: 225 nM
koff [9]: 0.1 s⁻¹
kon [9]: 380000 M⁻¹ s⁻¹

ShK-Lys22Asn peptide
Ki [1]: 1.2 nM

T-ShK–Arg^24Gln (peptide)
Ki [1]: 0.075 nM
percent of current blocked (0.1 ng of cRNA) [1]: 93%
